Data as given in patent US12214004B2, “Strains having effects of preventing or treating cancers” (Genome And Company, priority 2018, dated 2025).
Like-named read-outs stand apart in the source and are kept apart here.

Legend:
MC38 cancer cells = assay: MC38 tumor-induced model in C57BL/6 mice, MG731; format: in vivo, mouse; conditions: administered in combination with MG731
Protocol: Prior to constructing a tumor model, a sample of lactic acid bacteria was administered to mice for 2 weeks to increase intestinal establishment and immunity, and then 2×10^5 MC38 cancer cells were injected subcutaneously in the vicinity of the right hip of 8 C57BL/6 mice per group to construct a tumor-induced model. Simultaneously with injection of tumor cells, a sample of lactic acid bacteria was orally administered to the animal model for 3 weeks (from Monday to Saturday). The sample of lactic acid bacteria to be administered was diluted in 200 μL of PBS so as to be 1×10^9 of CFU per head and then administered orally.

HCT116 [1] = assay: HCT116 cell viability, anticancer chemotherapeutic agent with GEN3033
HCT116 [2] = system: HCT116
HCT116 [3] = assay: Cell lysis ability of PBMC against cancer cells (CFSE/7-AAD), MG731; format: cell-based; conditions: cancer cell death caused by PBMC set to 100%
Protocol: (§1) PBMCs (peripheral blood mononuclear cells) were collected from the human blood using Ficoll, and then red blood cells were removed through RBC lysis buffer, and the number of living cells was counted, and the cells were cultured for 24 hours in a round bottom 96 well plate containing lactic acid bacteria (6×10^5/50 ul/well) by adding PBMC 3 x 10^4 cells/50 μl to each well.
(§2) The colon cancer cell line HCT116 was mixed with 5 μM of CFSE (carboxyfluorescein succinimidyl ester) in RPMI medium without FBS, and reacted at 37° C. for 5 minutes, and then RPMI1640 medium containing FBS was added, and stored on ice for 10 minutes. After the supernatant was removed by centrifugation, the obtained cells were mixed with RPMI1640 containing 10% FBS, and then the number of cells was counted, and 3×10^4 cells/100 μl were added to each well of the above prepared 96 well plate.
Staining for CFSE and 7-AAD using FACSDiVa software (BD Biosciences) was measured to confirm the cell lysis ability of PBMC against cancer cell lines, and the results are shown in FIG. 9.

HCT116 [4] = assay: Cell lysis ability of PBMC against cancer cells (CFSE/7-AAD), GEN3033; format: cell-based, human; conditions: cancer cell death caused by PBMC set to 100%
Protocol: as §1, with “(3×10^5/50” for “(6×10^5/50”
as §2
Staining for CFSE and 7-AAD using FACSDiVa software (BD Biosciences) was measured to confirm the cell lysis ability of PBMC against cancer cell lines, and the results are shown in FIG. 29.

[5] = HCT116, combination treatment with 0.5% GEN3033, compared to the agent alone

Molecule: O=C1[O][Pt]2([NH][C@@H]3CCCC[C@H]3[NH]2)[O]C1=O [oxaliplatin]
- tumor inhibitory effect (MC38 cancer cells): more excellent
- cancer cell death (HCT116 [1]): remarkably high
- cell viability (HCT116 [2]): ≥ 90%

Molecule: Ipilimumab [antiCTLA-4]
- cancer cell death (cytotoxicity) (HCT116 [3]; alone): 108%
- cancer cell death (cytotoxicity) (HCT116 [3]; in combination with MG731): 214.4%
- cancer cell death (cytotoxicity) (HCT116 [4]; alone): 116.0%
- cancer cell death (cytotoxicity) (HCT116 [4]; in combination with GEN3033): 128.3%

Molecule: Atezolizumab [anti-PD-L1]
- cancer cell death (cytotoxicity) (HCT116 [3]; alone): 133.6%
- cancer cell death (cytotoxicity) (HCT116 [3]; in combination with MG731): 221.6%
- cancer cell death (cytotoxicity) (HCT116 [4]; alone): 123.5%
- cancer cell death (cytotoxicity) (HCT116 [4]; in combination with GEN3033): 154.0%

Molecule: N.N.[Cl][Pt][Cl] [Cisplatin, cisplatin]
- cell viability (HCT116 [1]; HCT116, 7 μM Cisplatin in combination with 0.5% GEN3033, compared to 7 μM Cisplatin alone): remarkably reduced

Molecule: O=P1(N(CCCl)CCCl)NCCCO1 (stereo not drawn) [cyclophosphamide]
- cancer cell death (HCT116 [1]; [5]): remarkably high

Molecule: CC(=O)O[C@H]1C(=O)[C@@]2(C)[C@H]([C@H](OC(=O)c3ccccc3)[C@]3(O)C[C@H](OC(=O)[C@H](O)[C@@H](NC(=O)c4ccccc4)c4ccccc4)C(C)=C1C3(C)C)[C@]1(OC(C)=O)CO[C@@H]1C[C@@H]2O [paclitaxel]
- cancer cell death (HCT116 [1]; [5]): remarkably high

Molecule: O=c1[nH]cc(F)c(=O)[nH]1 [5-FU, fluorouracil]
- cancer cell death (HCT116 [1]; [5]): remarkably high
